Assay results as given in article PMC5989136.

Biological target: H4 conjugated to SUMO (UniProt P62799)
Assay: refolding of the histone complex, analysed by SDS-PAGE

H3K23ac (H3 with acetylation at K23) (from UniProt P84233 1-136) (natural protein)
stoichiometry N: 1 H3K23ac:H4
